The target of test [1] is T1, wild-type H6-PKA-Cα, untreated (alpha isoform of the catalytic subunit of cAMP-dependent protein kinase) (murine, UniProt P05132 2-351). The experiment in a line: SPR; OpenSPR-XT; CREBtide coupled (EDC/sulfo-NHS) to a carboxyl sensor, surface blocked with monomeric streptavidin and ethanolamine; PKA-Cα 0.078–10 µM flowed at 20 µL/min; 1X HBS-P+, 10 mM MgCl2, 0.01% NP-40, 0.5% BSA, 10 µM AMP-PNP, pH 7.4; equilibrium analysis; apparent. As to conditions: both partners purified. On the technique in general: Surface plasmon resonance follows binding to a sensor surface in real time, without labels.

Test [2] deals with T1, wild-type H6-PKA-Cα, untreated (alpha …). Description: SPR; OpenSPR-XT; CREBtide coupled to a carboxyl sensor; PKA-Cα flowed at 75 µL/min; 1X HBS-P+, 10 mM MgCl2, 0.01% NP-40, 0.5% BSA, 10 µM AMP-PNP, pH 7.4; kinetics analysis; apparent. Conditions: both partners purified.

B1: CREBtide (peptide)
peptide: KRREILSRRPSYR
notes: Coupled by EDC/sulfo-NHS to the carboxyl sensor in SPR; source: bought: Alfa Aesar
Take B1: the Kd in test [1] was determined as 3.3 ± 1 µM; in test [2], 2.8 ± 0.75 µM.

These data come from publication PMC10532679 (Life, 2023).
